Results as given in article PMC7954794, “Protein context shapes the specificity of SH3 domain-mediated interactions in vivo” (Nature Communications, 2021).

Tests used:
Type in all cases: cell-based, Saccharomyces cerevisiae
[1] = system: BOI2; assay: DHFR-PCA on solid medium, bait BOI2 (Fig. 1B); conditions: bait BOI2, label = prey; 3-8 replicates
Text: (§1) Supplement 41467_2021_21873_MOESM8_ESM.xlsx, sheet "Fig1B" | column: medsize; medrep; Ratio; Score

[2] = system: ABP1; assay: DHFR-PCA on solid medium, bait ABP1 (Fig. 1B); conditions: bait ABP1, label = prey; for medrep (log2 median colony size normalized to plate background, PCA score): 2-4 replicates
Text: as §1

[3] = system: BOI1; assay: DHFR-PCA on solid medium, bait BOI1 (Fig. 1B); conditions: bait BOI1, label = prey; for medrep (log2 median colony size normalized to plate background, PCA score): 3-8 replicates; for Ratio (SH3-deleted/WT medrep): only significant differences showed, PPIs completely lost have a ratio of 0.1 and the gained PPIs 2.5
Text: as §1

[4] = system: BEM1-2; assay: DHFR-PCA on solid medium, bait BEM1-2 (Fig. 1B); conditions: bait BEM1-2, label = prey; for medrep (log2 median colony size normalized to plate background, PCA score): 2-8 replicates; for Ratio (SH3-deleted/WT medrep): only significant differences showed, PPIs completely lost have a ratio of 0.1 and the gained PPIs 2.5
Text: as §1

[5] = system: BEM1-1; assay: DHFR-PCA on solid medium, bait BEM1-1 (Fig. 1B); conditions: bait BEM1-1, label = prey; for medrep (log2 median colony size normalized to plate background, PCA score): 2-8 replicates
Text: as §1

[6] = system: BBC1; assay: DHFR-PCA on solid medium, bait BBC1 (Fig. 1B); conditions: bait BBC1, label = prey; for medrep (log2 median colony size normalized to plate background, PCA score): 2-4 replicates
Text: as §1

[7] = only significant differences showed, PPIs completely lost have a ratio of 0.1 and the gained PPIs 2.5

Row | Molecule | medrep (log2 median colony size normalized to plate background, PCA score) [1] | medrep (log2 median colony size normalized to plate background, PCA score) [2] | Ratio (SH3-deleted/WT medrep) [2, 7] | medrep (log2 median colony size normalized to plate background, PCA score) [3] | medrep (log2 median colony size normalized to plate background, PCA score) [4] | Ratio (SH3-deleted/WT medrep) [4] | medrep (log2 median colony size normalized to plate background, PCA score) [5] | medrep (log2 median colony size normalized to plate background, PCA score) [6] | Ratio (SH3-deleted/WT medrep) [3] | Ratio (SH3-deleted/WT medrep) [5, 7] | Ratio (SH3-deleted/WT medrep) [6, 7]
1 | YBR200W (protein, UniProt P29366 1-551, looked up) Bud emergence protein 1: MLKNFKLSKRDSNGSKGRITSADISTPSHDNGSVIKHIKTVPVRYLSSSSTPVKSQRDSSPKNRHNSKDITSPEKVIKAKYSYQAQTSKELSFMEGEFFYVSGDEKDWYKASNPSTGKEGVVPKTYFEVFDRTKPSSVNGSNSSSRKVTNDSLNMGSLYAIVLYDFKAEKADELTTYVGENLFICAHHNCEWFIAKPIGRLGGPGLVPVGFVSIIDIATGYATGNDVIEDIKSVNLPTVQEWKSNIARYKASNISLGSVEQQQQQSITKPQNKSAKLVDGELLVKASVESFGLEDEKYWFLVCCELSNGKTRQLKRYYQDFYDLQVQLLDAFPAEAGKLRDAGGQWSKRIMPYIPGPVPYVTNSITKKRKEDLNIYVADLVNLPDYISRSEMVHSLFVVLNNGFDREFERDENQNNIKTLQENDTATFATASQTSNFASTNQDNTLTGEDLKLNKKLSDLSLSGSKQAPAQSTSGLKTTKIKFYYKDDIFALMLKGDTTYKELRSKIAPRIDTDNFKLQTKLFDGSGEEIKTDSQVSNIIQAKLKISVHDI | 4.509 | 1.73 | 2.5 | 3.166 | 1.887 | 0.4478 | 4.2138 | – | – | – | –
2 | YKL051W (protein, UniProt P35735 1-353, looked up) Protein SFK1: MIQFKSPGNWLFIVPWIAFIPWYGMLIAMLICWASQGHPIYWFMHSEQFPVYISDIGATNLRPLFISCAGWQGLGYVITVALEFFQRSGYLPFQLKKKDPSISDSTSYAEKLHSGKYLMPPYYTKDERNLIFAAFVLGSIGELALLFSSIFSTALYHRVHIAMVSVFVVFMFLSTCCLIAEYFLMGRHYASVHPLASPHFNPQSSEKSFNQDYNTVDELPWYKWKGHVWNKFTISATLKVIWLTLAVVWAICFGAINDRSKSACFEWLLAFWFGIIFMILSADFYLGGRYRQSRYFNHVESFSGYYKYDKALGLYHSEDVLPSDDNAGVIATETASSNIYNNSSSNESIQVVV | 3.168 | – | – | 2.409 | 1.764 | 0.482 | 3.661 | 4.283 | 1.668 | 0.1 | –
3 | YGR281W (protein, UniProt P53049 1-1477, looked up) Oligomycin resistance …: MTITVGDAVSETELENKSQNVVLSPKASASSDISTDVDKDTSSSWDDKSLLPTGEYIVDRNKPQTYLNSDDIEKVTESDIFPQKRLFSFLHSKKIPEVPQTDDERKIYPLFHTNIISNMFFWWVLPILRVGYKRTIQPNDLFKMDPRMSIETLYDDFEKNMIYYFEKTRKKYRKRHPEATEEEVMENAKLPKHTVLRALLFTFKKQYFMSIVFAILANCTSGFNPMITKRLIEFVEEKAIFHSMHVNKGIGYAIGACLMMFVNGLTFNHFFHTSQLTGVQAKSILTKAAMKKMFNASNYARHCFPNGKVTSFVTTDLARIEFALSFQPFLAGFPAILAICIVLLIVNLGPIALVGIGIFFGGFFISLFAFKLILGFRIAANIFTDARVTMMREVLNNIKMIKYYTWEDAYEKNIQDIRTKEISKVRKMQLSRNFLIAMAMSLPSIASLVTFLAMYKVNKGGRQPGNIFASLSLFQVLSLQMFFLPIAIGTGIDMIIGLGRLQSLLEAPEDDPNQMIEMKPSPGFDPKLALKMTHCSFEWEDYELNDAIEEAKGEAKDEGKKNKKKRKDTWGKPSASTNKAKRLDNMLKDRDGPEDLEKTSFRGFKDLNFDIKKGEFIMITGPIGTGKSSLLNAMAGSMRKTDGKVEVNGDLLMCGYPWIQNASVRDNIIFGSPFNKEKYDEVVRVCSLKADLDILPAGDMTEIGERGITLSGGQKARINLARSVYKKKDIYLFDDVLSAVDSRVGKHIMDECLTGMLANKTRILATHQLSLIERASRVIVLGTDGQVDIGTVDELKARNQTLINLLQFSSQNSEKEDEEQEAVVAGELGQLKYESEVKELTELKKKATEMSQTANSGKIVADGHTSSKEERAVNSISLKIYREYIKAAVGKWGFIALPLYAILVVGTTFCSLFSSVWLSYWTENKFKNRPPSFYMGLYSFFVFAAFIFMNGQFTILCAMGIMASKWLNLRAVKRILHTPMSYIDTTPLGRILNRFTKDTDSLDNELTESLRLMTSQFANIVGVCVMCIVYLPWFAIAIPFLLVIFVLIADHYQSSGREIKRLEAVQRSFVYNNLNEVLGGMDTIKAYRSQERFLAKSDFLINKMNEAGYLVVVLQRWVGIFLDMVAIAFALIITLLCVTRAFPISAASVGVLLTYVLQLPGLLNTILRAMTQTENDMNSAERLVTYATELPLEASYRKPEMTPPESWPSMGEIIFENVDFAYRPGLPIVLKNLNLNIKSGEKIGICGRTGAGKSTIMSALYRLNELTAGKILIDNVDISQLGLFDLRRKLAIIPQDPVLFRGTIRKNLDPFNERTDDELWDALVRGGAIAKDDLPEVKLQKPDENGTHGKMHKFHLDQAVEEEGSNFSLGERQLLALTRALVRQSKILILDEATSSVDYETDGKIQTRIVEEFGDCTILCIAHRLKTIVNYDRILVLEKGEVAEFDTPWTLFSQEDSIFRSMCSRSGIVENDFENRS | 2.696 | – | – | 1.486 | 2.579 | 0.1 | 2.579 | 1.516 | 2.5 | – | 0.4155
4 | YCR002C (protein, UniProt P25342 1-322, looked up) Cell division control protein …: MDPLSSVQPASYVGFDTITNQIEHRLLKKGFQFNIMVVGQSGLGKSTLINTLFASHLIDSATGDDISALPVTKTTEMKISTHTLVEDRVRLNINVIDTPGFGDFIDNSKAWEPIVKYIKEQHSQYLRKELTAQRERFITDTRVHAILYFLQPNGKELSRLDVEALKRLTEIANVIPVIGKSDTLTLDERTEFRELIQNEFEKYNFKIYPYDSEELTDEELELNRSVRSIIPFAVVGSENEIEINGETFRGRKTRWSAINVEDINQCDFVYLREFLIRTHLQDLIETTSYIHYEGFRARQLIALKENANSRSSAHMSSNAIQR | 1.509 | 2.496 | – | 1.419 | 3.007 | 0.1 | 3.007 | – | 0.1 | – | –
